Experiments:
MS2 coat protein [1] = test: apparent KD of MS2 coat protein; designed switch direction (-1 OFF switch, 1 ON switch): 1; higher = weaker reporter binding
Method in brief: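 Each step of the titration lasted 0.8–1.5 h at the lowest concentration and 10–20 min at the highest. The protein, SNAP-549-labelled MS2 coat protein, went from 0.7 or 1.5 nM doubling to 3 µM over RNA switches transcribed on Illumina chips by stalled E. coli RNA polymerase. Normalised cluster fluorescence was curve-fitted, and the per-design median over clusters is given as apparent KD.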

MS2 coat protein [2] = test: apparent KD of MS2 coat protein; higher = weaker reporter binding; details: Eterna round: R107
Method in brief: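 Apparent KD is reported per design as the median of normalised binding-curve fits across its clusters. The RNA switches were made by on-chip transcription from Illumina sequencing clusters. SNAP-549-labelled MS2 coat protein was then added in twofold steps (0.7 or 1.5 nM to 3 µM; 0.8–1.5 h to 10–20 min per step) in 100 mM Tris-HCl pH 7.5, 80 mM KCl, 4 mM MgCl2, without or with constant ligand.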

[3] = input ligand: microRNA oligo, concentration not stated
[4] = Eterna round: R95, input ligand: FMN 200 uM
[5] = Eterna round: R95, input ligand: microRNA oligo, concentration not stated
[6] = Eterna round: R95, input ligand: none
[7] = input ligand: theophylline 20 uM
[8] = input ligand: tryptophan 2.4 mM
[9] = input ligand: theophylline 2 mM

Sequence	apparent KD of MS2 coat protein (MS2 coat protein [1]; input ligand: FMN 200 uM) [nM]	apparent KD of MS2 coat protein (MS2 coat protein [1]; [3]) [nM]	apparent KD of MS2 coat protein (MS2 coat protein [1]; input ligand: none) [nM]	apparent KD of MS2 coat protein (MS2 coat protein [2]; input ligand: arginine 13.2 mM) [nM]	apparent KD of MS2 coat protein (MS2 coat protein [2]; [7]) [nM]	apparent KD of MS2 coat protein (MS2 coat protein [2]; [8]) [nM]	apparent KD of MS2 coat protein (MS2 coat protein [2]; [9]) [nM]	further results
UUACUCCCUACAUGAGGAUCACCCAUGUUUUACAAACCCAACGAGGAUAUGUUGAGCGGAUGUAAGCAGAAGGCGUAGGGUAGA [Eternabot solution 37] (Eterna round: R96, puzzle: Same State NG 3)	143	16.7	40					
CAUCUCCCUUUUACAUGAGGAUCACCCAUGUUUUUAUAUUGAGAGGAUAUCGUAUUUAGAAACAUCGAGAAGGCUCAUUUGUAU [JR_SSNG3_Sub072] (Eterna round: R96, puzzle: Same State NG 3)	83.2	89.1	153					
AGCCGAGACUGAGGAUAUUUGUAUCUACAUGAGGAUCACCCAUGUAGCAACACGUGGUAGUGAUCGAAGAAGGCAGCUCGGCGC [MOD2 of Omei's SS(NG)2 Cv2] (Eterna round: R96, puzzle: Same State NG 2)	54	282	291					
CGUCCGGCCUGUGCUGGCCGGUAGCUUGUACAUGAGGAUCACCCAUGUUCAUGUGCAGGCUUUUUGCUCGUCUUGUG [salish99_mir208a_014] (puzzle: Sensor for hsa-mir-208a)								apparent KD of MS2 coat protein (MS2 coat protein [1]; [4]): 27.9 nM; apparent KD of MS2 coat protein (MS2 coat protein [1]; [5]): 29.6 nM; apparent KD of MS2 coat protein (MS2 coat protein [1]; [6]): 31.5 nM
GGCAGGUGCAGGCUUGCUUGCACCUGGAAACAUGAGGAUCACCCAUGUUUGGGACAAGCUUUGCUCCUCGUCUUGUC [JL ViennaUCT Isusreraar mod 2] (puzzle: Sensor for hsa-mir-208a)								apparent KD of MS2 coat protein (MS2 coat protein [1]; [4]): 28.2 nM; apparent KD of MS2 coat protein (MS2 coat protein [1]; [5]): 36.5 nM; apparent KD of MS2 coat protein (MS2 coat protein [1]; [6]): 36.7 nM
UUCUCAUUUACAUGAGGAUCACCCAUGUUUUUAUGUCAGAGAUAGGAUAUAGUUCUCUCGUUUUUCUAGAAGGAUCUUUUUAUU [JR_SSNG3_Sub086] (Eterna round: R96, puzzle: Same State NG 3)	65.9	41.3	64.6					
CAAGCUUGGGUCUUCCCGCUCGUCUACAAACAUGAGGAUCACCCAUGUAUACUCUUCGCAUCAAUUCUAUCUCUUGG [Onraenbi] (Eterna round: R96, puzzle: Sensor for hsa-mir-208a)	176	23.1	163					
AGUACUCGAACGGAUACCAGCCGGACAUGAGGAUCACCCAUGUCCUACCAUGUCUCGGUUGGCCCUUGGCAGCCGUUCGUGUACA [Omei Theo B SS A v2]				17	469	95.8		
ACAUGAGGAUCACCCAUGUUCCUCAUUGAUACCAGUGAAUUUAGACGCCCUUGGCAGCGAGUUUUUUUAUAAGAUGUUUUUUUUU [6.H]				244	829	1040		
AGUGUUGUCUGAAGGAGCGGCCCUUGAUCCUCAUGAGACAUGAGGAUCACCCAUGUCUCGGGCCAGGUAGGUCGCAGGCAUCACA [Omei Arg B SS v1]				22.6	34.1	23.7	23.3	apparent KD of MS2 coat protein (MS2 coat protein [2]; input ligand: none): 20.5 nM
ACACAUGAGGAUCACCCAUGUGCGCUGGAAGGAGCGCAGAAUCAUGCAGGUAGGUCGCCAGUGCCCUUUGAUAAAGGGAAAAGAG [Reor]				52.2	99.7	64.3	76.9	apparent KD of MS2 coat protein (MS2 coat protein [2]; input ligand: none): 43.3 nM
AUACAUGAGGAUCACCCAUGUUAUAGUGAAGGAGCGACAUUUAGGUCAGGUAGGUCGCACUAUUGAAUUAUUAUCCUCUUUUCUU [JR_ExcArginiA_Sub021]				23.1	31.2	24.7	23.7	apparent KD of MS2 coat protein (MS2 coat protein [2]; input ligand: none): 21.3 nM
ACAUGAGGAUCACCCAUGUUAAACAGGGUGCGAGGACCGGUACGGCCGCCACUCGGACAUUAUUACGAGUGAAUGGCAACGAUGU [#12 Exclusion Tryptophan A]				26.5	24.1		24.4	

Source: the supplement of paper PMC9170038
